Laboratory results from paper PMC5270629 (Thrombosis research, 2015).

Biological target: T1, human fibrinogen (human, UniProt P02671-2 20-644; P02675 31-491; P02679-2 27-437)
T1 sequence (looked up) 1: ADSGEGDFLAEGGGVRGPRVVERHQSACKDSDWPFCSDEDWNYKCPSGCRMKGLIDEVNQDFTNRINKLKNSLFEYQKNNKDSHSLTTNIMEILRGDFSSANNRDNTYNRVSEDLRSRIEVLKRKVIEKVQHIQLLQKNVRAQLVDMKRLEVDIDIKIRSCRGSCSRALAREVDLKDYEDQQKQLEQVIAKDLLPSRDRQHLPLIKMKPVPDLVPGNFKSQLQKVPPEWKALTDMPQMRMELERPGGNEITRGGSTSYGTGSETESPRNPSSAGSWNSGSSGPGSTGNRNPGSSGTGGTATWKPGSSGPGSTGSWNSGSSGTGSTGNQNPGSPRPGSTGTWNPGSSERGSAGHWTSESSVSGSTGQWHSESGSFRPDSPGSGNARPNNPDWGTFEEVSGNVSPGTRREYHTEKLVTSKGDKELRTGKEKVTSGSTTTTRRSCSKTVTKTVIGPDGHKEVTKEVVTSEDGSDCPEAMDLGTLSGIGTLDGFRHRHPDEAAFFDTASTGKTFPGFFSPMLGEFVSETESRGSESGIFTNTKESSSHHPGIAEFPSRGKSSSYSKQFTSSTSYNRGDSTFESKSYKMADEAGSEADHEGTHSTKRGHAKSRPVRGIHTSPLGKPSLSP
T1 sequence (looked up) 2: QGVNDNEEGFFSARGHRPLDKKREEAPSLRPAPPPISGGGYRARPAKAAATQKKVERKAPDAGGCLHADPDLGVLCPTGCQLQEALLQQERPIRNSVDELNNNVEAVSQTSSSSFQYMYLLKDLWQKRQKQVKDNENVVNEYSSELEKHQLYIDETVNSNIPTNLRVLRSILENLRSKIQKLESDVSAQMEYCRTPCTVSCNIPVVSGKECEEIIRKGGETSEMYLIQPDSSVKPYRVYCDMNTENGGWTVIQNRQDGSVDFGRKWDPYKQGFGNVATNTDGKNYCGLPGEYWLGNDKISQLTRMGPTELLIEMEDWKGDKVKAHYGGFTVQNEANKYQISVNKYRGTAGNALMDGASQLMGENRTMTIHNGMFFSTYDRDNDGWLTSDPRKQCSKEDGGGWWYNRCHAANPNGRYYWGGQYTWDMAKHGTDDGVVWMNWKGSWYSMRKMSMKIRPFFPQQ
T1 sequence (looked up) 3: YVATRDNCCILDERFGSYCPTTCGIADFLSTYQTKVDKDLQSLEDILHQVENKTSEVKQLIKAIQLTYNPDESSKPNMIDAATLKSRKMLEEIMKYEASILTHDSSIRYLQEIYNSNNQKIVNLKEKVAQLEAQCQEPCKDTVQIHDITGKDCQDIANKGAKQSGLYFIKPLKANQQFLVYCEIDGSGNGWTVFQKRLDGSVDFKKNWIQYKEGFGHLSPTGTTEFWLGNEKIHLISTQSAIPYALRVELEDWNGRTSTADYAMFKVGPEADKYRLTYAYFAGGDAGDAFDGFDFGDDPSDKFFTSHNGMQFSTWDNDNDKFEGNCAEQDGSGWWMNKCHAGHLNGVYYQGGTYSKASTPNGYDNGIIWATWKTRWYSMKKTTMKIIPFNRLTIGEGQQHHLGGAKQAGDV
Test: SPR

Kd: 125 ± 30 nM
B1: recombinant von Willebrand factor (VWF) A2 domain polypeptide, A2_(1481-1668) (domain or fragment)
chain: GLLGVSTLGPKRNSMVLDVAFVLEGSDKIGEADFNRSKEFMEEVIQRMDVGQDSIHVTVLQYSYMVTVEYPFSEAQSKGDILQRVREIRYQGGNRTNTGLALRYLSDHSFLVSQGDREQAPNLVYMVTGNPASDEIKRLPGDIQVVPIGVGPNANVQELERIGWPNAPILIQDFETLPREAPDLVLQR
